For test [1], the target named is Human transferrin receptor on K562 cells (human) (UniProt P02786). Nature of the test: FACS of K562 cells with BSA-coupled fluorescent beads (negative control), 4 C, 1 h.
Test [2] shares this target. Nature of the test: FACS of K562 cells with BSA-coupled fluorescent beads (negative control), 37 C, 1 h.
Test [3] has the same target. Nature of the test: FACS of K562 cells with BSA-coupled fluorescent beads (negative control), 37 C with sodium azide, 1 h.

Chain of Human transferrin receptor on K562 cells (human) (P02786 whole entry): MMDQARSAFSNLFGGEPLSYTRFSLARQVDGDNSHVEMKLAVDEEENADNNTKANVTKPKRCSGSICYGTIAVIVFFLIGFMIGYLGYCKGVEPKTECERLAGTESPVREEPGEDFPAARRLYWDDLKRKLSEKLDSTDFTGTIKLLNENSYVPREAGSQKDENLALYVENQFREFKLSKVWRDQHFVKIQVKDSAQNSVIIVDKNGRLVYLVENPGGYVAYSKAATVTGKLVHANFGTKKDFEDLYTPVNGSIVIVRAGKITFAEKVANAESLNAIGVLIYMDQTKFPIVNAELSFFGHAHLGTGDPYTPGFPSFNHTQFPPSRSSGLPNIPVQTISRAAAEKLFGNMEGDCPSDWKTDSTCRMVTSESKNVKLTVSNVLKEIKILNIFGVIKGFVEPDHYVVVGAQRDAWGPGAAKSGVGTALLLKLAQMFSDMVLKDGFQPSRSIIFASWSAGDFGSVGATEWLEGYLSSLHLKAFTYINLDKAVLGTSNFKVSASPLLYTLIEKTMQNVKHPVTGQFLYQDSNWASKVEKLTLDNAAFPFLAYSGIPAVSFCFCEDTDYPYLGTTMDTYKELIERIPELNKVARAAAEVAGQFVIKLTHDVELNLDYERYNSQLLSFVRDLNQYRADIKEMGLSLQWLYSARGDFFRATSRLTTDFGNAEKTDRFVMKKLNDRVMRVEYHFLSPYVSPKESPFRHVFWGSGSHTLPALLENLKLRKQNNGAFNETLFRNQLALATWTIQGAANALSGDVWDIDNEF

Take “BSA (negative control on fluorescent beads) (from UniProt P02769 25-607)”: the Mean fluorescence intensity (MFI) in test [1] worked out at 1.45 MFI; in test [2], 9.07 MFI; in test [3] it was 3.49 MFI.
